Molecular target: Recombinant TRAF-USP7 (residues 55 to 208) (UniProt Q93009 55-208)
Assay: SPR

Chain of Recombinant TRAF-USP7 (residues 55 to 208) (Q93009 55-208): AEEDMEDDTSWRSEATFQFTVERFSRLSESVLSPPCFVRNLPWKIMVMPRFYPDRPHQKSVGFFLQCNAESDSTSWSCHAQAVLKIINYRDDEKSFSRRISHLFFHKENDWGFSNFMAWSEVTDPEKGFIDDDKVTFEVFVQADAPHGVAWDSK

B1: Recombinant BTB-Keap1 (residues 48 to 180) (domain or fragment, UniProt Q14145 48-180, looked up)
chain: GNRTFSYTLEDHTKQAFGIMNELRLSQQLCDVTLQVKYQDAPAAQFMAHKVVLASSSPVFKAMFTNGLREQGMEVVSIEGIHPKVMERLIEFAYTASISMGEKCVLHVMNGAVMYQIDSVVRACSDFLVQQLD
Work on B1 yielded a Kd of 18 nM.
